Test results reported in patent US6329500A, “Transforming growth factor-β binding site” (University of Virginia Patent Foundation, priority 1999, dated 2001).
Like-named read-outs stand apart in the source and are kept apart here. Blank lines part the entries; values can stand above or below the substance they belong to.

Key:
FBHE cells = assay: Endothelial cell proliferation assay, TGF-β alone; assay type: cell-based, bovine; details: TGF-β 10 pM, 1 h pulse
Protocol: Fetal bovine heart endothelial (FBHE) cells were cultured in DMEM supplemented with 10% FBS, 20 ng/ml acidic fibroblast growth factor, and 80 ng/ml basic fibroblast growth factor and passaged at subconfluence with trypsin-EDTA. To perform proliferation assays, the cells were plated at a density of 2×10^4 /well (24 well plates) in DMEM supplemented with 0.2% FBS. […] The fusion proteins were preincubated with the TGF-β for 15 min prior to addition to the cultures. At the completion of an incubation, the cultures were washed 3 times with serum-free DMEM and then allowed to incubate in DMEM with 0.2% FBS for 30 h. [^3 H]Thymidine was added for an additional 18 h; the cells were then harvested and [^3 H]thymidine incorporation was quantitated.

[1] = target: T1, 125I-TGF-β1 binding to immobilized FP3 (Homo sapiens, UniProt P01023+P01137); assay: Competition for 125I-TGF-β1 binding to PVDF-immobilized FP3; details: unlabeled TGF-β1 0.2 μM
T1 construct: corresponding to amino acids 614-797 and 798-1082, respectively; made in house
T1 sequence (P01023 with tags, fused parts or gaps limits assumed): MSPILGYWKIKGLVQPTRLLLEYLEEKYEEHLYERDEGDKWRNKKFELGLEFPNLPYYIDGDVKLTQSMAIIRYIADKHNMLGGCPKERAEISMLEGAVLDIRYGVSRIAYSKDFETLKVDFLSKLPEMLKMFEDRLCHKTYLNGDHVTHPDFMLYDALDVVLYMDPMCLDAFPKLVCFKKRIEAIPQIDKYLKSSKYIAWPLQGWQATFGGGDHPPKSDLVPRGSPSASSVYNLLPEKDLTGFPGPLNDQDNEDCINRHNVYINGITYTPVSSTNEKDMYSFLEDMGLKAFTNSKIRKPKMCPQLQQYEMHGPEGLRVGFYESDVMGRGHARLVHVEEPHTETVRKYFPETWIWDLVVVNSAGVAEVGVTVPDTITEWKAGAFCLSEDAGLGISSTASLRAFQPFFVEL
T1 sequence (P01137 279-390 limits assumed): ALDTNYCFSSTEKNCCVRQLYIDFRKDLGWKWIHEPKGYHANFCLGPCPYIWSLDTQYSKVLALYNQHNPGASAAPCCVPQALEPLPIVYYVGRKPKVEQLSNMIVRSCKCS
Protocol: (§1) To block free sulfhydryls, some samples were treated with 5 mM IAM for 2 h at 25° C. Equivalent amounts of each protein ([…]) were subjected to SDS-PAGE on 10% slabs. IAM-treated GST-α2 M-peptide fusion proteins were subjected to SDS-PAGE as well. All samples were electro-transferred to PVDF membranes. The membranes were blocked with 5% milk and 0.1% Tween 20 in PBS for 12 h at 4° C. and then rinsed with 0.1% Tween 20 in PBS (PBS-T). […] Biophys. Res. Commun. […] NGF-β was radioiodinated with Iodogen, to a specific activity of 2-5 μCi/μg, using the method recommended by the manufacturer. […] After washing the membranes with PBS-T, bound radioligands were detected by Phosphorlmager analysis.

TGF-β1 [2] = target: T2, TGF-β1 (Homo sapiens, UniProt P01137); details: previously reported in references 31 and 33; mean ± S.E., n=4; read-out: IC50, 125I-TGF-β1 binding to immobilized α2M-MA; cited from earlier work
T2 construct: purchased R&D Systems (Minneapolis, Minn.)
T2 sequence (P01137 279-390 limits assumed, species assumed): as the sequence (P01137 279-390 limits assumed) above

TGF-β1 [3] = target: T2, TGF-β1; assay: 125I-TGF-β1 binding to immobilized α2M-MA, solution-phase competition; details: mean ± S.E., n=4; 1 h at 22° C.
Protocol: The wells were washed three times with PBS-T and blocked with PBS-T for 16 h at 4° C. […] In the presence of a fusion protein (FP) which binds TGF-β, the total concentration of TGF-β [βT ] was related to [βF ], at equilibrium, as follows: [βT ]=[βF ](1+[FP]/KI).

NGF-β = target: T3, NGF-β (Mus musculus, UniProt P01139); assay: Ligand blot analysis of 125I-NGF-β binding to PVDF-immobilized proteins; details: SDS-PAGE, PVDF membrane, 125I-NGF-β 50 pM, 2 h at 25° C.
T3 construct: from tissue; host or cells: male mouse submaxillary glands
T3 sequence (P01139 122-239 limits assumed): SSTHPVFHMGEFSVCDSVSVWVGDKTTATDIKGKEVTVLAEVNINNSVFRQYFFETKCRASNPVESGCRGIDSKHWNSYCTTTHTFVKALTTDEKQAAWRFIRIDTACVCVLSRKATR
Protocol: as §1

TGF-β2 [4] = target: T4, TGF-β2 (Homo sapiens, UniProt P61812); details: read-out: KD for the binding of TGF-β2; cited from earlier work
T4 construct: purchased Genzyme (Cambridge, Mass.)
T4 sequence (P61812 303-414 limits assumed): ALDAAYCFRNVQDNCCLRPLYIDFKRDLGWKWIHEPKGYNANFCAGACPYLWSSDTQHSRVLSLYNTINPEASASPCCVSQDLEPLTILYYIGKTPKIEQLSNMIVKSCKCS

TGF-β2 [5] = target: T4, TGF-β2; details: previously reported in references 31 and 33; mean ± S.E., n=4; read-out: IC50, 125I-TGF-β2 binding to immobilized α2M-MA; cited from earlier work
TGF-β2 [6] = target: T4, TGF-β2; assay: Ligand blot analysis of 125I-TGF-β2 binding to PVDF-immobilized proteins; details: SDS-PAGE, PVDF membrane, 125I-TGF-β2 20 pM, 2 h at 25° C.
Protocol: as §1

TGF-β1 [7] = target: T2, TGF-β1; assay: Ligand blot analysis of 125I-TGF-β1 binding to PVDF-immobilized proteins; details: SDS-PAGE, PVDF membrane, 125I-TGF-β1, 2 h at 25° C.
Protocol: as §1

Inhibition of 125I-TGF-β1 binding to immobilized FP3 [1]: 72±8%
Substance: TGF-β1: transforming growth factor-β1 from R&D Systems
Decrease of [3H]thymidine incorporation (FBHE cells): 69%

Substance: Thrombospondin: solution-phase inhibitor of TGF-β binding to immobilized α2M-MA [reference compound]
IC50 (TGF-β1 [2]): 160 ± 18 nM

IC50 (TGF-β1 [3]): 360 ± 48 nM
Substance: α2 M monomer: prepared by exposing native α2M to 2 mM DTT under non-denaturing conditions

125I-NGF-β binding, ligand blot (NGF-β): bound
125I-TGF-β2 binding, ligand blot (TGF-β2 [6]): bound
125I-TGF-β1 binding, ligand blot (TGF-β1 [7]): bound
Substance: α2 M: Human α2-macroglobulin, 718-kDa homotetrameric glycoprotein purified from plasma
Kd (TGF-β2 [4]): 10 nM
IC50 (TGF-β2 [5]): 19 ± 3 nM
IC50 (TGF-β1 [2]): 520 ± 39 nM
